The nanobody polyreactivity screen of Harvey et al. (2022)

Test: yeast display, Sf9 membrane polyspecificity reagent, FACS + sequencing; frameworks hold sequencing errors
Outline: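 After 36–48 hours of galactose induction, yeast (Saccharomyces cerevisiae BJ5465) displaying a synthetic nanobody library were stained at 4 °C for 1 hour with 10% biotinylated, detergent-solubilized Sf9 membrane reagent. Streptavidin microbeads enriched the stained cells before FACS sorting into low and high (top ~1%) gates on anti-HA and streptavidin fluorescence. Each clone's polyreactivity label reflects its gate of origin.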

Sequence	polyreactivity (PSR sort gate)
QVQLVESGGGLVQAGGSLRLSCAASGRIIYNAMGWYRQAPGKERELVAAITSNGCSTYYADSVKGLFTISRDTAKNTVYLQMNSLKPEDTAVYYCARDVNSVPSEVKYDYWGQGTQVNVSS	low polyreactivity
QVQLVESGGGLVQAGGSLRLSCAASGSTFPYYAMGWYRQAPGKERELVARISSGSSTNYADSVKGRFTISRDNAKNTVYLQMNSLKPEDTAVYYCAARYTARRQSYGYWGQGTQVTVSS	high polyreactivity
QVQLVESGGGLVQAGGSLRLSCAASGSTFQFYAMGWYRHAPGKERELVAAIDGSDGDTYYADSVKGRFTISRDNAKNTVYLQMNSLKPEDTAVYYCNADRDALVGYDYDYWGQGTQVTVSS	low polyreactivity
QVQLVESGGGLVQAGGRLRLSCTASGIIFGTYAMGWYRQAPGKERELVAAISSSGVSTYYADSVKGRFTISRDNAKNTVYLQMNSLKPEDTAVYYCAAPLHYGYYYWGQGTQVTVSS	high polyreactivity
QVQLVESGGGLVQAGGSLRLSCAASGLIFGSYVMGWYRQAPGKERELVAAITVRTGTTYYADSVKGRFTISRDNAKNTVYLQMNSLKPEDTAVYYCARRYRPKYGYWGQGTQVTVSS	high polyreactivity
QVQLVESGGGLVQEGGSLRLSCAASGSTFTPYAMGWYRQAPGKERELVAGITGNGGSTRYADSVKGRFTISRDNEKNTVYLQMKSLKTEDSAVYYCAARWTRQRYRTSYYAWGQGTQVTVSS	high polyreactivity
QVQLVESGGGLVQAGGSLRLSCAASGSIFGDYAMGWYRQAPVKERELVATITWIGGSTYYADSVKGRFTISRDNAKNTVYLQMNSLTPEDTAVYYCAATKYVDVKYYYWGQGTQVTVSS	low polyreactivity
QVQLVESGGGLVQAGGSLRISCAASGSTFGEYALGWYRQAPGKERELVAVITSDDNTYYADSVKGRFTISRDNAKNTVYLQMNSLKPEDTAVYYCATDDRRRFKYWGQGTQVTVSS	high polyreactivity
QVQLVESGGGLVQAGGSLRLSCAASGSIFPGNGMGWYRQAPGKEMELVASITSGARTNYADSVKGRFTISRDNAKNTVYFPMNSLIPEDTAVYYCAADIKSSIRRAYDYWGQGSQVTVSS	high polyreactivity
QVQLVESGGGLVQAGGSLRLSCAASGRTFHRYAMGWYRQAPGKERELVAAITYRGGRTYYADSVKGRFTISRDNANNTVYLQMNSLKPEDTAVYYCNTTQYSPIHDPGDYWGQGTQVTVSS	low polyreactivity
QVQLVESGGGLVQAGGSLRLSCAASGSTFYAYAMGWYRQAPGKERELVAVITSSGSTYYADSVKGRFTISRDNAKNTVYLQMNSLKPEDTAVYYCARVSYRGYGYWGQGTQVTVSS	high polyreactivity
QVQLVESGGGLVQAGGSLRLSCAASGRTFDYYAMGWYRQAPGKERELVAAISSSGGSTYYADSVKGRFTISRDNAKNTVYLQMNSLKPEDTEVYYCNAYAYRFNHIHHIYTTDGEYWGQGTQVTVSS	high polyreactivity
QVQLVESGGGLVQAGGSLRLSCAASGSTFSYNAMGWYRQAPGKERELVAAISRGGITNYADSVKGRFTISRDNAKNTVYLQMNSLKPEDTAVYYCAVRHVWPWQGYDYWGQGTQVTVSS	low polyreactivity
QVQLVESGGGLVQAGGSLRLSCAASGGIYYSNAMGWYRQAPGKERELVAAISRDGTITYYADSEKGRFTSSRDNAKNTVYLQMNSLKPEDTAVYSCASDPSIPSWYSIYVYWGQGTQVTVSS	high polyreactivity
QVQLVESGGGLVQAGGSLRLSCAASGRIFRVYAMGWYRQAPGKERELVASISSGGSTNYADSVKGRFTISRENAKNTVYLQMNSLKPEDTAVYYCAADYWYRLFWYYGAPLDYWGQGTQVTVSS	low polyreactivity
QVQLVESGGGLVQAGGSLRLSCAASGSTFGENAMGWYRQAPGKERELVAGINSTGGSTYYADSVKGRFTISRDNAKNTVSLQMNSLKPEDTAVYYCAAGDWYSGNTSHFYYWGQGTQVTVSS	low polyreactivity
QVQLVESGGGLVQAGGSLRLSCAASGSIFNRNAMGWYRQAPGKERELVAAITGRGGSTYYADSVKGRFTISRDNAKNTVYLQMDSLKPEDTAVYYCAAETLAPRAYYYWGQGTQVTVSS	low polyreactivity
QDQLVESGGGLVQAGGSLRLSCAASGRIFAPNAMGWYRQAPGKERELVAAITYSGTSTYADSVKGRFTISRDNAKNTVYLQMNSLKPEDTAVYYCAAEGSGVYYHSYDYWGQGTQVTVSS	low polyreactivity
QVQLVESGGGLVQAGGSLRLSCAASGRILYVNTMGWYRQAPGKERELVAGITSRVGSTYYADSVKGRFTISRDNAKNTVYLQMNSLKPEDTAVYYCNARDKFYVPSLYAYDYWGQGTQVTVSS	low polyreactivity
QVQLVESGGGLVQAGGSLRLSCAASGSTFTGYDMGWYRQAPGKERELVAAISISGGRTFYADSVKGRFTISRDNAKNTVYLQMNSLKPEDTAVYYCAAYQRGSKYSFDYWGQGTQVTVSS	high polyreactivity
QVQLVESGGGLVQAGASLRLSCAASGSTFLQNAMGWYRQAPGKVRELVAAITRSGGSTNYADSVKGRFKISRDNAKNTVYLQKNSLKPEDTAVYYCPAGGRRYDDDYWGQGTQVTVSS	high polyreactivity
QVQLVESGGGFVQAGGRLRLSCAASGRIFWMNAMGWYRQAPGKETEFVASITYGSDSTYYADSVKGRFTISRDNAKNTVYLQMNSLKPEDTAVYYCNREGWHYGPYGYWGQGTQVTVSS	low polyreactivity

Sequence	polyreactivity (PSR sort gate)
QVQLVESGGGLVQAGGSLRLSCAASGSTFGGYAMGWYRQAPGKERELVAAISGSGVRTYYADSEKGRFTISRDNAKNTVYLQMNSLQPEDTAVYYCAKRVRYPGDRYYYWGQGTQVTVSS	high polyreactivity
QVQLVESGGGLVQAGGSLRLSCAASGFTFVYYTMGWYRQAPGKERELVAAITSGGRTYYADSVKGRFTISRDNAKNTVYLQMNSLKPEDTAVYYCAAPDRYRGYIGYGYWGQGTQVTVSS	high polyreactivity
QVQLVESGGGLVQAGGILRLSCAASGIIFQQYAMGWYRQAPGKERELVAAITYSGDGTYYADSEKGRFTISRDNAKNTVYLQMNSLKPEDTAVYYCNTDRKSRWARYEYWGQGTQVTVSS	low polyreactivity
QVQLVESGGGLVQAGGSLRLSCADSGSTFRFNAMGWYRQAPGKERDLVAAISQSGGSTRYADSVKGRFTISRDNAKNTVYLQMNSLKPEDTAVYYCAARRRWLPGYAWQVAYDSWGQGTQVTVSS	high polyreactivity
QDQLVESGGGLVQAGGSLRLSCAASGPIFLVKTMGCYIQAPGKERELVADITWRGGDTYYADSVKGRFTISRDNAKNTDYLQMNSLKPEDTAVYYCAARGLGYGYERYRLGYWGQGTQVTVSS	high polyreactivity
QVQLVESGGGLVQAGGSLRLSCAASGSTFSFYAMGWYRQAPGKERELVAAIRFSGTSTYADSVKGRFTISRDNAKNTVYLQMNSLKPEDTAVYYCAARRAVFYSQRYYRYDYWGQGTQVTVSS	high polyreactivity
QVQLVESGGGLVHAGGSLRLSCAASGSIFSWYDMGWYRQAPGKERELVADISSGGSTNYADSVKGRFTISRDNAKNTVYLQMNSMKPEDTAVYYCNARLGYLYDYWGQGTQVTVSS	low polyreactivity
QVQLVETGGGLVQAGGSLRLSCAASGSIFGPYAMAWYRQAPGKERELVAVISRSGGSTYYADSVKGRFTISRDNAKNTVYLQMNSLKPEDTAVYYCAAYRGPRADYYWGQGTQVTVSS	high polyreactivity
QVQLVESGGGLVQAGGSLLLSCAASGRIINYYAMGWYRQAPGKEREFVAAITRSGGRTYYADSVKGRFTISRDNAKNTVYLQMNSLKPEDTAVYYCAAPYGTYAYDYWGQGTQVTVSS	high polyreactivity
QVQLVESGGGLVQAGGSLRLSCAASGSIFVPYAMGWYRQAPGKERELVASINWNGSSTYADSVKGRFTISRDNAKNSVYLQMNSLKPEDTAVYYCNADYNRNSVQFSLYDYWGQGTQVTVST	low polyreactivity
QVQLVESGGGLVQAGGSLRLSCAASGRIFYTYAMGWYRQAPGKERELVAAITYRGGSTYYADSVKGRFTISRDNAKNTVYLQMNSLKPEDTAVYYCATQLWDRYGFGYWGQGTQVTVSS	high polyreactivity
QVQLVESRGGLVQAGGSLRLSCAATGFTIYYYAMGWYRQAPGKERELVAAITGSGGSTYYADSVKGRFTISRDNAKNTVYLQMNSLKPEDTAVYYCARRYQVGWYYKYDYWGQGTQVTVSS	high polyreactivity
QVQLVESGGGLVQAGGSLRLSCAASGRIFLRNTMGWYRQAPGTERELVAAITGRGGSTYYADSVKGRFTISRDNAKNTVYLQMNSLIPEDTAVYYCAARSPGYSPPGPVRLSDYWGQGTQVTVSS	high polyreactivity
QVQLVESGGCLVQAGGSLRLSCAASGLLFYFYAMGWYRQAPGKEREFVAAISSGGDTYYADSVKGRFTISRDNSKNTVYLQMNSLKPVDTAVYYCAVGTVYLTYRGYEYWGQGTQVTVSS	high polyreactivity
QVQHEESGGGLVQAGASLRLSCAPSGRILLYNAMGCYRQAPGKERELVAAISSTGGRTYYADSVKGRFTISRDNAKNTFYLQMNSLKPEDTAVYYCAADYYWSLHQRMDYWGQGTQVTVSS	high polyreactivity
QVQLVESGGGLVQAGGSLRLSCAASGNTFSDYSMGWYRQAPGNERELVAAITISGGSTYYADSVKGRFTISRDNAKNTVYLQMNSLKPEDTAVYYCAADVWYILYDYWGQGTQVTVSS	low polyreactivity
QVQLVESGGGLVQAGGSLRLSCAASGSTFRGYAMGWYRQAPGKERELVASISWNGTSTYYADSVKGRFTISRDNAKNTVYLQMNSLKPEDTAVYYCNVRFNYRGTYDYWGQGTQVTVSS	low polyreactivity
QVQLVESGGGLVQAGGSLRLSCAASGSTFYYNAMGWYRQAPGKERELVARISRAGASTYYAVAVKGRFTISRDNAKNTVYLPMNSLTPEDTAGYYCAARKKKYGYDNWGQATQVTVSS	high polyreactivity
QVQLVESGGGLVQAGGSLRLSCAASGFIFDIYAMGWYRQAPGKERELVAAITWNSGSTHYADSVKGRITISRDNAKNTVYLQMNSLKPEDTAVYYCAADEVTYAYYPYDYWGQGTQVTVSS	low polyreactivity
QVQLVESGGGLVQAGGSLRLSCAASGSIFVRYAMGWYRQAPGKERELVAVISSDGRTYYADSVKGRFTISRDNAKNTVYLQMNSLKPEDTAVYYCAKRAWGFGGYDYWGQGTQVTVSS	low polyreactivity
QVHLVESGGGLGKAGGSLRLTCAASGSTFKYYAMAWYRQAPGKETELVAAISQRGGSTYYADSVKGRFTISRYNAKNTVYLQMNCLKPEDTAVYYCNAGFQRAYSGPGYDMDYWGQGTQVTVSS	high polyreactivity
